Test results as given in patent US20250152746A1, “BASE EDITING OF ANGPTL3 AND METHODS OF USING SAME FOR TREATMENT OF DISEASE” (Verve Therapeutics, Inc., priority 2020, published 2025).
In the oligonucleotide strings, read from the 5' end, every base follows the letter of its sugar. An asterisk marks phosphorothioate; unmarked linkages are phosphodiester. Other units and linkages are bracketed, terminal groups are in braces. A string of capitals states the bases alone. m = 2'-O-methyl; r = 2'-OH (RNA)

B1: GA243: PCSK9 gRNA; protospacer GGCGAGGGCTGGGGTCGTGC (SEQ ID NO: 236) (nucleic acid)
guide: GGCGAGGGCUGGGGUCGUGCGUUUUAGAGCUAGAAAUAGCAAGUUAAAAUAAGGCUAGUCCGUUAUCAACUUGAAAAAGUGGCACCGAGUCGGUGCUUUU
modifications: sugars from the 5' end m3 r94 m3, linkages s3 o93 s3 (s phosphorothioate, o phosphodiester), T or U not given here
B2: GA235: PCSK9 gRNA; protospacer CACCGCTGCCGGCAACTTCC (SEQ ID NO: 228) (nucleic acid)
guide: CACCGCUGCCGGCAACUUCCGUUUUAGAGCUAGAAAUAGCAAGUUAAAAUAAGGCUAGUCCGUUAUCAACUUGAAAAAGUGGCACCGAGUCGGUGCUUUU
modifications: sugars from the 5' end m3 r94 m3, linkages s3 o93 s3 (s phosphorothioate, o phosphodiester), T or U not given here
B3: GA244: PCSK9 gRNA; protospacer TTCCGAATAAACTCCAGGCC (SEQ ID NO: 237) (nucleic acid)
guide: UUCCGAAUAAACUCCAGGCCGUUUUAGAGCUAGAAAUAGCAAGUUAAAAUAAGGCUAGUCCGUUAUCAACUUGAAAAAGUGGCACCGAGUCGGUGCUUUU
modifications: sugars from the 5' end m3 r94 m3, linkages s3 o93 s3 (s phosphorothioate, o phosphodiester), T or U not given here
B4: GA242: PCSK9 gRNA; protospacer TCACCGCTGCCGGCAACTTC (SEQ ID NO: 235) (nucleic acid)
guide: UCACCGCUGCCGGCAACUUCGUUUUAGAGCUAGAAAUAGCAAGUUAAAAUAAGGCUAGUCCGUUAUCAACUUGAAAAAGUGGCACCGAGUCGGUGCUUUU
modifications: sugars from the 5' end m3 r94 m3, linkages s3 o93 s3 (s phosphorothioate, o phosphodiester), T or U not given here
B5: GA238: PCSK9 gRNA; protospacer GCACGACCCCAGCCCTCGCC (SEQ ID NO: 231) (nucleic acid)
guide: GCACGACCCCAGCCCUCGCCGUUUUAGAGCUAGAAAUAGCAAGUUAAAAUAAGGCUAGUCCGUUAUCAACUUGAAAAAGUGGCACCGAGUCGGUGCUUUU
modifications: sugars from the 5' end m3 r94 m3, linkages s3 o93 s3 (s phosphorothioate, o phosphodiester), T or U not given here
B6: GA398 (nucleic acid)
guide: mU*mC*mA*rGrCrUrCrCrArGrGrCrGrGrUrCrCrUrGrGmGrUrUrUrUrArGmAmGmCmUmAmGmAmAmAmUmAmGmCmAmArGrUrUmArAmArAmUrAmAmGmGmCmUmArGrUrCmCrGrUrUrAmUmCrArAmCmUmUmGmAmAmAmAmAmGmUmGmGmCmAmCmCmGmAmGmUmCmGmGmUmGmCmU*mU*mU*mUmUmUmU
B7: GA397 (nucleic acid)
guide: mU*mC*mA*rGrCrUrCrCrArGrGrCrGrGrUrCrCrUrGrGmGrUrUrUrUrArGmAmGmCmUmArGmAmAmAmUmAmGmCmAmArGrUrUmArAmArAmUrAmAmGmGmCmUmArGrUmCmCrGrUrU*rAmUmCrArAmCmUmUrGmAmAmAmAmAmGmUmGrGmCmAmCmCmGmAmGmUmCmGmGmUmGmCmU*mU*mU*mUmUmUmU
B8: GA396 (nucleic acid)
guide: mU*mC*mA*rGrCrUrCrCrArGrGrCrGrGrUrCrCrUrGrGmGrUrUrUrUrArGmAmGmCmUmArGmAmAmAmUmAmGmCmAmArGrUrU*mArAmArAmUrAmAmGmGmCmUmArGrUmCmCrGrUrUrAmUmCrArAmCmUmUrGmAmAmAmAmAmGmUmGrGmCmAmCmCmGmAmGmUmCmGmGmUmGmCmU*mU*mU*mUmUmUmU
B9: GA395 (nucleic acid)
guide: mU*mC*mA*rGrCrUrCrCrArGrGrCrGrGrUrCrCrUrGrGmGrUrUrUrUrArGmAmGmCmUmArGmAmAmAmUmAmGmCmAmArGrUrUmArAmArAmUrAmAmGmGmCmUmArGrUmCmCrGrUrUrAmUmCrArAmCmUmUrGmAmAmAmAmAmGmUmGrGmCmAmCmCmGmAmGmUmCmGmGmUmGmCmU*mU*mU*mUmUmUmU
B10: GA405: gRNA targeting PCSK9 with modifications to the tracr, for SpCas9 (nucleic acid)
guide: mU*mC*mA*rGrCrUrCrCrArGrGrCrGrGrUrCrCrUrGrGmGrUrUrUrUrArGmAmGmCmUmAmGmAmAmAmUmAmGmCmAmArGrUrUmArAmArAmUrAmAmGmGmCmUmArGrUrCmCrGrUrUrAmUmCrArAmCmUmUmGmAmAmAmAmAmGmUmGmGmCmAmCmCmGmAmGmUmCmGmGmUmGmCmU*mU*mU*mUmUrUmU

System: PCSK9 gene
Assay: PCSK9 gRNA/SpCas9 editing in primary cynomolgus hepatocytes (Tables 2, 22)
Assay type: cell-based, cynomolgus monkey
Settings: 100 ng/RNA/mL; SpCas9 mRNA MS002 1:1 by weight
Procedure: In set of experiments, PCSK9 gRNAs were co-transfected with an equivalent amount (1:1 ratio by weight) of in vitro transcribed commercially available SpCas9 mRNA MS002 purchased from TriLink Biotechnologies into primary human hepatocytes at 2500, 500, or 100 ng/RNA/mL and processed as described in detailed methods. Extracted genomic DNA was analyzed for gene editing at the target site with next-generation sequencing of PCR amplicons generated around the target sites. Samples were prepared using the Nextera XT DNA library preparation kit (Illumina) according to the manufacturer's protocol. Briefly, two rounds of PCR were performed first to amplify the region of interest and second to add DNA sequences required for next generation sequencing and sample identification to the initial product. The final amplicon was sequenced on the Illumina MiSeq instrument according to the manufacturer's protocol. A wide range of editing activities (Table 2) were observed. In a second set of experiments, ANGPTL3 gRNAs were co-transfected with an equivalent amount of in vitro transcribed SpCas9 mRNA (1:1 ratio by weight) into primary human hepatocytes and processed and analyzed similarly (Table 3).
[…] Genomic DNA was processed, sequenced, and analyzed as described in the detailed methods section. GA266 was transfected independently twice to serve as two positive controls.
Plating, culturing, and transfection of primary hepatocytes. Primary human liver hepatocytes (PHH) and primary cynomolgus liver hepatocytes (PCH) from BioIVT were cultured per the manufacturer's protocol. Briefly, primary human hepatocytes and primary cyno hepatocytes were obtained as frozen aliquots from BioIVT. Four lots of primary human hepatocytes, each derived from a de-identified individual donor, were used for the experiments: STL (main donor) was used for all experiments, including screening experiments and off-target experiments; HLY, JLP, and TLY were used for off-target experiments. The HFG lot of primary cyno hepatocytes were used for experiments. Following the manufacturer's instructions, cells were thawed and rinsed prior to plating in 24-well plates that had been coated with bovine collagen overnight, with a density of approximate 350,000 cells/well in INVITROGRO hepatocyte medium supplemented with TORPEDO antibiotic mix (BioIVT). The cells were thawed and resuspended in hepatocyte thawing medium followed by centrifugation at 100 g for 10 min at 4° C. The supernatant was discarded, and the pelleted cells resuspended in hepatocyte plating medium. Each vial contains approximately 5 million cells that were used for plating one 24-well plate. Plated cells were allowed to settle and adhere for 4-6 h in a tissue culture incubator at 37° C. under 5% CO2 atmosphere. After incubation, cells were checked for monolayer formation. The incubating media were then replaced with fresh hepatocyte maintenance media (complete INVITROGRO medium obtained from BioIVT, the cell line provider). The cells thus became ready for transfection. Each of the gRNAs were co-transfected with an equivalent amount of in vitro transcribed ABE8.8 mRNA (1:1 ratio by molecular weight) into primary human hepatocytes via MessengerMax reagent (Lipofectamine), using various dilutions to assess for editing activity at different concentrations of test article. MessengerMAX from Thermo Fisher is used for transfection. Solution A: desired amount of guide RNA is mixed with 1:1 wt ratio of mRNA in OptiMEM. Solution B: MessengerMAX in OptiMEM. After mixing solutions A and B, the mixture was incubated at room temperature for 20 min. 60 μL of the incubated solution was added dropwise to each cell wells. For protospacer sequences that were a perfect match to the corresponding cynomolgous monkey PCSK9 or ANGPTL3 gene sequence, each gRNA was also co-transfected with an equivalent amount of ABE8.8 mRNA (1:1 ratio by molecular weight) into primary cynomolgous hepatocytes, and followed the same transfection protocol. […]

Molecule	Cyno Primary Hepatocyte Editing % 100 [%]
B1	0.51
B2	2.51
B3	1.63
B4	1.79
B5	0.94

Same assay, conditions: 500 ng/RNA/mL; SpCas9 mRNA MS002 1:1 by weight

Molecule	Cyno Primary Hepatocyte Editing % 500 [%]
B1	1.84
B2	17.51
B3	7.89
B4	7.13
B5	4.01

Same assay, conditions: 2500 ng/RNA/mL; SpCas9 mRNA MS002 1:1 by weight

Molecule	Cyno Primary Hepatocyte Editing % 2500 [%]
B1	10.18
B2	50.03
B3	28.16
B4	31.71
B5	17.92

Same assay, conditions: SpCas9 mRNA MS002, 625 ng/test article/mL, rep1

Molecule	Cynomolgus Primary Hepatocytes-% Editing [%]
B6	39.09
B7	40.72
B8	44.44
B9	33.87
B10	26.2

Same assay, conditions: SpCas9 mRNA MS002, 625 ng/test article/mL, rep2

Molecule	Cynomolgus Primary Hepatocytes-% Editing [%]
B6	44
B7	46.28
B8	41.53
B9	34.57
B10	26.36

Same assay, conditions: SpCas9 mRNA MS002, 1250 ng/test article/mL, rep1

Molecule	Cynomolgus Primary Hepatocytes-% Editing [%]
B6	56.45
B7	56.47
B8	56.02
B9	41.48
B10	35.84

Same assay, conditions: SpCas9 mRNA MS002, 1250 ng/test article/mL, rep2

Molecule	Cynomolgus Primary Hepatocytes-% Editing [%]
B6	55.21
B7	58.68
B8	52.02
B9	44.35
B10	35.88

Same assay, conditions: SpCas9 mRNA MS002, 2500 ng/test article/mL, rep1

Molecule	Cynomolgus Primary Hepatocytes-% Editing [%]
B6	59.85
B7	56.65
B8	53.98
B9	43.91
B10	41.85

Same assay, conditions: SpCas9 mRNA MS002, 2500 ng/test article/mL, rep2

Molecule	Cynomolgus Primary Hepatocytes-% Editing [%]
B6	63.97
B7	58.59
B8	56.84
B9	49.53
B10	47.33

Same assay, conditions: SpCas9 mRNA MS002; 2500, 1250, 625 ng/test article/mL

Molecule	editing efficiency compared to positive control GA266
B10	slightly lower editing efficiency
